Laboratory results as given in patent US20240034757A1 (OXFORD UNIVERSITY INNOVATION, published 2024).
Numbering of substitutions follows the chain as printed. Numbers in names are those of the source. Like-named read-outs stand apart in the source and are kept apart here.

What was measured:
Experiment in all cases: BLI
CCL7_HUMAN = CCL7_HUMAN (human, UniProt P80098 24-99)
CCL24_HUMAN [1] = target: T1, CCL24_HUMAN (human, UniProt O00175 27-104)
T1 sequence: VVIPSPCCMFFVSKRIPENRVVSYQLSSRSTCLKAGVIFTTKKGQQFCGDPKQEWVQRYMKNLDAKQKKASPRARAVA

CCL15_HUMAN = target: T2, CCL15_HUMAN (human, UniProt Q16663 22-113)
T2 sequence: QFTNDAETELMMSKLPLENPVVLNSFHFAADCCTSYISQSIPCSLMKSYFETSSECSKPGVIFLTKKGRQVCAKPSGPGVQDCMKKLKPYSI

CCL5_HUMAN [2] = target: T3, CCL5_HUMAN (human, UniProt P13501 24-91)
T3 sequence: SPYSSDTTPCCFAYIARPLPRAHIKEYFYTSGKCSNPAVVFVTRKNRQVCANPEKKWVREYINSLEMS

CCL17_HUMAN [3] = target: T4, CCL17_HUMAN (human, UniProt Q92583 24-94)
T4 sequence: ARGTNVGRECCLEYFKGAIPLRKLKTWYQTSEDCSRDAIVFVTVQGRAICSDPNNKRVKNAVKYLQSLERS

CCL16_HUMAN = target: T5, CCL16_HUMAN (human, UniProt O15467 24-120)
T5 sequence: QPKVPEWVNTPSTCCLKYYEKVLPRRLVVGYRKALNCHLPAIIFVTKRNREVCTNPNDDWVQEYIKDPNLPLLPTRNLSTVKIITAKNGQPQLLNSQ

CCL19_HUMAN = target: T6, CCL19_HUMAN (human, UniProt Q99731 22-98)
T6 sequence: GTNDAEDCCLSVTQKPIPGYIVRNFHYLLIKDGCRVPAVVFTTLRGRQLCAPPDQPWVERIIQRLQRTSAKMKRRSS

CCL21_HUMAN = target: T7, CCL21_HUMAN (human, UniProt O00585 24-134)
T7 sequence: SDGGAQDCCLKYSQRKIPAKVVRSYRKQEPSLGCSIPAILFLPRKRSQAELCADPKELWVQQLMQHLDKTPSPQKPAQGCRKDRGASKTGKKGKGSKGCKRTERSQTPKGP

CCL20_HUMAN [4] = target: T8, CCL20_HUMAN (human, UniProt P78556 27-96)
T8 sequence (P78556 27-96 limits assumed): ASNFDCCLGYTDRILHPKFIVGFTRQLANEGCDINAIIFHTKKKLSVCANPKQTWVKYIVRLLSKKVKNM

CCL22_HUMAN [5] = target: T9, CCL22_HUMAN (human, UniProt O00626 25-93)
T9 sequence: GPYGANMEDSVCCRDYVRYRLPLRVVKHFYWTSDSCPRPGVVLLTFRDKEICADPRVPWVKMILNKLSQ

CCL3_HUMAN = target: T10, CCL3_HUMAN (human, UniProt P10147 24-92)
T10 sequence: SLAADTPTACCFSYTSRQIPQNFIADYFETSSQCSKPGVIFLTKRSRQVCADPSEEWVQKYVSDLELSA

CCL1_HUMAN = target: T11, CCL1_HUMAN (human, UniProt P22362 24-96)
T11 sequence: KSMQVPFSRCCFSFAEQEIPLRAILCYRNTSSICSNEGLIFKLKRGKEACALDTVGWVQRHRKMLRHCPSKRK

CCL14_HUMAN = target: T12, CCL14_HUMAN (human, UniProt Q16627 22-93)
T12 sequence: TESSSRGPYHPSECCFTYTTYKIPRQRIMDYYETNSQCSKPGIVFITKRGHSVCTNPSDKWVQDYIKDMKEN

CCL8_HUMAN = target: T13, CCL8_HUMAN (human, UniProt P80075 24-99)
T13 sequence (looked up): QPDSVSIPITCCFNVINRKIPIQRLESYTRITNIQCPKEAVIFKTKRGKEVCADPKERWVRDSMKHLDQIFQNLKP

CCL4_HUMAN [6] = target: T14, CCL4_HUMAN (human, UniProt P13236 24-92)
T14 sequence: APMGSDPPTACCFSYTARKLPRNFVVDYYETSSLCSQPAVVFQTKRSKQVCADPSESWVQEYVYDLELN

CCL13_HUMAN = CCL13_HUMAN (human, UniProt Q99616 24-98)
CCL13_HUMAN, sequence (Q99616 24-98 limits assumed): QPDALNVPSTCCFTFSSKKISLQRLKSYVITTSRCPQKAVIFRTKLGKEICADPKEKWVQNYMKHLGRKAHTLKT

CCL24_HUMAN [7] = target: T1, CCL24_HUMAN; remark: listed apart in the source
CCL5_HUMAN [8] = target: T3, CCL5_HUMAN; remark: listed apart in the source
CCL17_HUMAN [9] = target: T4, CCL17_HUMAN; remark: listed apart in the source
CCL20_HUMAN [10] = target: T8, CCL20_HUMAN; remark: listed apart in the source
CCL4L1_HUMAN = target: T15, CCL4L1_HUMAN (human, UniProt Q8NHW4 24-92)
T15 sequence: T14 sequence with S47G

CCL22_HUMAN [11] = target: T9, CCL22_HUMAN; remark: listed apart in the source
CCL4_HUMAN [12] = target: T14, CCL4_HUMAN; remark: listed apart in the source
CCL2_HUMAN = CCL2_HUMAN (human, UniProt P13500 24-99)
CCL2_HUMAN, sequence (P13500 24-99 limits assumed): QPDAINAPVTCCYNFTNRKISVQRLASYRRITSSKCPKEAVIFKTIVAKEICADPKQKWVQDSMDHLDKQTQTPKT

CCL7_HUMAN, sequence (P80098 24-99 limits assumed): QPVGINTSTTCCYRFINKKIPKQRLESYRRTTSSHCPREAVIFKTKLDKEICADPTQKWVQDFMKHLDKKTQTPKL

B1: P991:G4S:P1156 (designed binder)
chain: ENGEGTTQPDYDNSTDYYNYEDFKCTCPAPHLNNTNGTVMKPIGCYYTCNVTRCTAPDTYPCYNLTEHQAKNLTTSPTTLCAVGNCDHGICVPNGTKELCFKAPNLEEGGGGSADDDNELFTVQYCGMNCTKDEGGTWTGCTGKKEGCKCYHESGKNYGLCLSTEYTDFSQYGNPSDSEIEAAKPKRSDTLSH
- Kd (CCL7_HUMAN): 0.287 nM
- RT (CCL7_HUMAN): 375 min
- Kd (CCL24_HUMAN [1]): 3.18 nM
- RT (CCL24_HUMAN [1]): 8.52 min
- Kd (CCL15_HUMAN): 127 nM
- RT (CCL15_HUMAN): 0.87 min
- Kd (CCL5_HUMAN [2]): 0.947 nM
- RT (CCL5_HUMAN [2]): 92 min
- Kd (CCL17_HUMAN [3]): 5.8 nM
- RT (CCL17_HUMAN [3]): 11.6 min
- Kd (CCL16_HUMAN): 0.636 nM
- RT (CCL16_HUMAN): 72.4 min
- binding result (CCL19_HUMAN): no binding
- Kd (CCL21_HUMAN): 18.2 nM
- RT (CCL21_HUMAN): 17.7 min
- binding result (CCL20_HUMAN [4]): no binding
- Kd (CCL22_HUMAN [5]): 2.36 nM
- RT (CCL22_HUMAN [5]): 15.6 min
- Kd (CCL3_HUMAN): 2.22 nM
- RT (CCL3_HUMAN): 37.1 min
- Kd (CCL1_HUMAN): 7.66 nM
- RT (CCL1_HUMAN): 4.13 min
- Kd (CCL14_HUMAN): 0.835 nM
- RT (CCL14_HUMAN): 135 min
- Kd (CCL8_HUMAN): 7.89 nM
- RT (CCL8_HUMAN): 16.6 min
- Kd (CCL4_HUMAN [6]): 3.54 nM
- RT (CCL4_HUMAN [6]): 28.1 min
- Kd (CCL13_HUMAN): 0.176 nM
- RT (CCL13_HUMAN): 276 min

B2: P1156:G4S:P991 (designed binder)
chain: ADDDNELFTVQYCGMNCTKDEGGTWTGCTGKKEGCKCYHESGKNYGLCLSTEYTDFSQYGNPSDSEIEAAKPKRSDTLSHGGGGSENGEGTTQPDYDNSTDYYNYEDFKCTCPAPHLNNTNGTVMKPIGCYYTCNVTRCTAPDTYPCYNLTEHQAKNLTTSPTTLCAVGNCDHGICVPNGTKELCFKAPNLEE
notes: also called two-warhead evasin
- Kd (CCL7_HUMAN): 0.435 nM
- RT (CCL7_HUMAN): 231 min
- Kd (CCL24_HUMAN [1]): 3.58 nM
- RT (CCL24_HUMAN [1]): 6.75 min
- Kd (CCL15_HUMAN): 166 nM
- RT (CCL15_HUMAN): 0.66 min
- Kd (CCL5_HUMAN [2]): 0.754 nM
- RT (CCL5_HUMAN [2]): 103 min
- Kd (CCL17_HUMAN [3]): 7.44 nM
- RT (CCL17_HUMAN [3]): 8.6 min
- Kd (CCL16_HUMAN): 0.503 nM
- RT (CCL16_HUMAN): 92.5 min
- binding result (CCL19_HUMAN): no binding
- Kd (CCL21_HUMAN): 19.9 nM
- RT (CCL21_HUMAN): 15.3 min
- binding result (CCL20_HUMAN [4]): no binding
- Kd (CCL22_HUMAN [5]): 2.18 nM
- RT (CCL22_HUMAN [5]): 15.8 min
- Kd (CCL3_HUMAN): 1.89 nM
- RT (CCL3_HUMAN): 38.2 min
- Kd (CCL1_HUMAN): 16.6 nM
- RT (CCL1_HUMAN): 2.01 min
- Kd (CCL14_HUMAN): 0.664 nM
- RT (CCL14_HUMAN): 159 min
- Kd (CCL8_HUMAN): 7.45 nM
- RT (CCL8_HUMAN): 15.3 min
- Kd (CCL4_HUMAN [6]): 3.55 nM
- RT (CCL4_HUMAN [6]): 26.6 min
- Kd (CCL13_HUMAN): 0.207 nM
- RT (CCL13_HUMAN): 221 min

B3: P1243:G4S:P1156 (designed binder)
chain: RNHTEDNSTEYYDYEEARCACPARHLNNTNGTVLKLLGCHYFCNGTLCTAPDGYPCYNLTAQQVRTLTTYPNTSCAVGVCMKGTCVKNGTMEQCFKTPGGGGSADDDNELFTVQYCGMNCTKDEGGTWTGCTGKKEGCKCYHESGKNYGLCLSTEYTDFSQYGNPSDSEIEAAKPKRSDTLSH
- Kd (CCL24_HUMAN [7]): 16.4 nM
- Kd (CCL5_HUMAN [8]): 8.95 nM
- Kd (CCL17_HUMAN [9]): 3.51 nM
- binding result (CCL20_HUMAN [10]): no binding (tested: 300 nM)
- binding result (CCL4L1_HUMAN): no binding (tested: 300 nM)
- binding result (CCL22_HUMAN [11]): no binding (tested: 300 nM)
- Kd (CCL4_HUMAN [12]): 19.4 nM
- binding result (CCL2_HUMAN): no binding (tested: 300 nM)
